Reference: PMC6625847 (Molecular cell, 2019)
Several values for one entry are separate records, joined by “and”; a condition that tells them apart may be missing. Equal entries are not always repeated. Where two headings read alike, the source gives them in different places. One block for each molecule: values may come before it.

How the values were obtained:
[1] = biological target: full-length ArcS260D,T278D (rat) (UniProt Q63053); assay: dynamic light scattering
[2] = biological target: full-length ArcQ241A (rat) (UniProt Q63053); assay: dynamic light scattering
[3] = biological target: full-length ArcS260D,T278A (rat) (UniProt Q63053); assay: dynamic light scattering
[4] = biological target: full-length ArcK257A (rat) (UniProt Q63053); assay: dynamic light scattering
[5] = biological target: full-length ArcS260D (rat) (UniProt Q63053); assay: dynamic light scattering
[6] = biological target: Arc (Arg3.1) (UniProt Q63053); assay: dynamic light scattering of oligomer size; details: reference: wild type; sites T278
[7] = biological target: full-length ArcG277D (rat) (UniProt Q63053); assay: dynamic light scattering
[8] = biological target: the molecule itself; assay: dynamic light scattering
[9] = biological target: the molecule itself; assay: dynamic light scattering; remark: listed apart in the source

Molecule: full-length ArcS260D,T278A (from UniProt Q63053 1-396) (natural protein)
stoichiometry N [3]: 4

Molecule: full-length ArcS260D (from UniProt Q63053 1-396) (natural protein)
stoichiometry N [5]: 4

Molecule: full-length ArcG277D (from UniProt Q63053 1-396) (natural protein)
stoichiometry N [7]: 4

B1: full-length Rn Arc (wild type) (natural protein, rat, UniProt Q63053 1-396, looked up)
chain: MELDHMTTGGLHAYPAPRGGPAAKPNVILQIGKCRAEMLEHVRRTHRHLLTEVSKQVERELKGLHRSVGKLENNLDGYVPTGDSQRWKKSIKACLCRCQETIANLERWVKREMHVWREVFYRLERWADRLESMGGKYPVGSEPARHTVSVGVGGPEPYCQEADGYDYTVSPYAITPPPAAGELPEQESVGAQQYQSWVPGEDGQPSPGVDTQIFEDPREFLSHLEEYLRQVGGSEEYWLSQIQNHMNGPAKKWWEFKQGSVKNWVEFKKEFLQYSEGTLSREAIQRELDLPQKQGEPLDQFLWRKRDLYQTLYVDAEEEEIIQYVVGTLQPKFKRFLRHPLPKTLEQLIQRGMEVQDGLEQAAEPSVTPLPTEDETEALTPALTSESVASDRTQPE
stoichiometry N [8]: ~32 and ~48 | stoichiometry N [9]: 4

B2: full-length ArcS260A,T278A (natural protein, rat, UniProt Q63053 1-396, looked up)
chain: MELDHMTTGGLHAYPAPRGGPAAKPNVILQIGKCRAEMLEHVRRTHRHLLTEVSKQVERELKGLHRSVGKLENNLDGYVPTGDSQRWKKSIKACLCRCQETIANLERWVKREMHVWREVFYRLERWADRLESMGGKYPVGSEPARHTVSVGVGGPEPYCQEADGYDYTVSPYAITPPPAAGELPEQESVGAQQYQSWVPGEDGQPSPGVDTQIFEDPREFLSHLEEYLRQVGGSEEYWLSQIQNHMNGPAKKWWEFKQGAVKNWVEFKKEFLQYSEGALSREAIQRELDLPQKQGEPLDQFLWRKRDLYQTLYVDAEEEEIIQYVVGTLQPKFKRFLRHPLPKTLEQLIQRGMEVQDGLEQAAEPSVTPLPTEDETEALTPALTSESVASDRTQPE
binding result [8]: binds

B3: full-length ArcT278D (natural protein, rat, UniProt Q63053 1-396, looked up)
chain: MELDHMTTGGLHAYPAPRGGPAAKPNVILQIGKCRAEMLEHVRRTHRHLLTEVSKQVERELKGLHRSVGKLENNLDGYVPTGDSQRWKKSIKACLCRCQETIANLERWVKREMHVWREVFYRLERWADRLESMGGKYPVGSEPARHTVSVGVGGPEPYCQEADGYDYTVSPYAITPPPAAGELPEQESVGAQQYQSWVPGEDGQPSPGVDTQIFEDPREFLSHLEEYLRQVGGSEEYWLSQIQNHMNGPAKKWWEFKQGSVKNWVEFKKEFLQYSEGDLSREAIQRELDLPQKQGEPLDQFLWRKRDLYQTLYVDAEEEEIIQYVVGTLQPKFKRFLRHPLPKTLEQLIQRGMEVQDGLEQAAEPSVTPLPTEDETEALTPALTSESVASDRTQPE
stoichiometry N [8]: ~24 | stoichiometry N [9]: 4

B4: full-length ArcS260A (natural protein, rat, UniProt Q63053 1-396, looked up)
chain: MELDHMTTGGLHAYPAPRGGPAAKPNVILQIGKCRAEMLEHVRRTHRHLLTEVSKQVERELKGLHRSVGKLENNLDGYVPTGDSQRWKKSIKACLCRCQETIANLERWVKREMHVWREVFYRLERWADRLESMGGKYPVGSEPARHTVSVGVGGPEPYCQEADGYDYTVSPYAITPPPAAGELPEQESVGAQQYQSWVPGEDGQPSPGVDTQIFEDPREFLSHLEEYLRQVGGSEEYWLSQIQNHMNGPAKKWWEFKQGAVKNWVEFKKEFLQYSEGTLSREAIQRELDLPQKQGEPLDQFLWRKRDLYQTLYVDAEEEEIIQYVVGTLQPKFKRFLRHPLPKTLEQLIQRGMEVQDGLEQAAEPSVTPLPTEDETEALTPALTSESVASDRTQPE
binding result [8]: binds

Now from value to molecule:

stoichiometry N [1]: 4
Molecule: full-length ArcS260D,T278D (from UniProt Q63053 1-396) (natural protein)

stoichiometry N [2]: 4
Molecule: full-length ArcQ241A (from UniProt Q63053 1-396) (natural protein)

stoichiometry N [4]: 4
Molecule: full-length ArcK257A (from UniProt Q63053 1-396) (natural protein)

other: oligomer mass from DLS after 6 min at 30°C [6]: weaker; reference ~2458
Molecule: Arc (Arg3.1) (from UniProt Q63053) T278D
